These results are taken from the DeepSol protein solubility set.

The nature of the data set: soluble on expression in E. coli; label from the status in PepcDB or PDB records.
For “MSLTSRVSGVISTDEIIVILSVFVRYDVEQPSKLDRVRADYNVHYWSQGFFGIDDQGEVYVSPRKDKAHQTQLSSIVKQLEARDLNLPVLVRFPQILHQRVHNICDAFNQAIEEYDYPNKYLLVYPIKVNQQKEVVDEILASQAELEHKQLGLEAGSKPELLAVLAMAQQASSVIVCNGYKDREYIRLALIGEKLGHKVFIVLEKLSELDLVLKEAKSLGVKPRLGLRIRLASQGAGKWQSSGGEKSKFGLAASQVLTVINRLKAENQLEALQLVHFHLGSQMANIRDVRNGVNEAVRFYCELRELGAHIDFFDVGGGLAVDYDGTRSQSSNSMNYGLHEYARNIVSTVSDVCNLYGQPRPVIISESGRSITAHHAVLITNVIGTEAYSPEEIPAPGADAPMLLKNMWRGFEEVQHGTDDRALIEIYNDTQSDLSEAHSQFATGVLNLEHRAWAEQLSLRIYHELRQKMSNKNRFHRPILDELQERLADKFFVNFSLFQSLPDAWGIDQVFPVLPLSGLEEMNDRRAVMLDITCDSDGAVEQYVEGQGIESTLPVPAWTSDKPYLMGFFLVGAYQEILGDMHNLFGDTHSAVVNINDNGESEIAFINEGDTVEDMMRYVHIDVDKIRTNYRQLVSQRVAKEEQETVLAELELGLSGYTYLEDFEGHHHHHH”, the “soluble on expression in E. coli” value was “soluble”.
“MSLQLRHNRTLLENLADRQTMALQQFVDGDIHFIGSAANFFRSSTSDDWVRFHTFAEETLKGSQSLIALQWLVKVEPPQAETFTARMQQRFPEFTLYTVPKTGEIKYGFGTDDQAKYVLSDIYPLNYDNRKLLGFYSERERFKRILADIVVNRRPNVSDKVRLLQDGIDKSIVKDGMLVYHPVFSSEDDRSLLGVMVGVVRLSTYFEKLVQISVMEQDLDMRVIDTGFDSEDSPVLYQSPMWRADDEPKIERKLVLPNRDWVLEFELHQPINHSEELEHHHHHH”: the “soluble on expression in E. coli” value is reported as “soluble”.
Turning to “MGSDKIHHHHHHMELTGHMKNNRYSIFRNAICIAATAGMLFGCGPDKKPVEKVAEEVVLQPMVTPDFNSDSSYEYVSRQVAFGPRVPNTKPHMDCGEYLAKFFTKHGGWVYRQQFSAKAFDGTDLRLKNIIVSYNQKATKRILLAAHWDTRPFADQDEVDPKKPIDGANDGASGVGILMELARVINLAEKKPDVGFDIILFDGEDYGQPMYYPGPYQNDSWCLGSQYWAKHKFPANYSAYYGILLDMVGAKDATFAKEGVSVENAPSVVNNVWTTAARLGYGKHFINVMSQPITDDHTYINKLALIPMIDIIEYENSDDVYFGSYWHTHNDNMNIIDKNTLKAVGQTLIEVLYREKL”, the “soluble on expression in E. coli” value is recorded as “not soluble”.
In the case of “MGSDKIHHHHHHMSDTLIELRNIGKRFGGVRALDGVSLAIRPGEIHCLAGENGSGKSTVIKVMSGIYTPEEGEILIDGRPVGRLDPIRAVQHGVQVIYQDFSLFGNLTVAENLALNTYVLEGRRRMDWRRARTMAVEVLARLGVDIDPDAEVGTLPTSGRQVVAIARAILAKARLIIMDEPTTALTRHEVDALFAIVRDLQAQGIAVLFVSHKMREMLEISERLTVFRNGRKVAEGPMSDFDEAAITHAMTGLSLTDDPYRPTLPPGPPLLEVRKLSVPGSVQDIDLSLRPGEIVGISGLIGSGRTELARALFGMEPAMTGTLRLEGREIHPRSVQEAIALGIAYVPEDRLTEGLFLPQSIERNLVVSILERLRRGPFLDTRAVREKTLGMFRDMQIAAPSPETAVGNLSGGNAQRVMLGRWLLTGARVLILNGPTVGVDVGSKATIHRIIRDLAQREGLGVLMISDDVPELVTNCNRIHVMHRGRFVADLDGSGMTEDRINDALKTLN”, the “soluble on expression in E. coli” value was “not soluble”.
On to “MGSDKIHHHHHHVTVSAFVLLLCRRAIVTLDSTPAFSTDPELICFSSRFQDEMEMYAPAEVVAHYLDRHEEWFRRCAEPMATTSIGKDAYAIVLGRYGSLGFEVEPQIGLELLPADQGVYRICTVPVPGYESQGYQVDFQASLSLDRLTHETEAPVTEATAVAWDLLLTVGIRLPRFIHVLPQKLVHSTGDHLLRQIVRQTSRRLTHRVQEDFHQQLNLPLPPRRHARF”, for which the “soluble on expression in E. coli” value was “not soluble”.
Under “VLIAGYLTDWRIMTTAQLRPIAPQKLHFSENLSVWVSDAQCRLVVSQPALDPTLWNTYLQGALRAYSKHGVECTLDLDAISDGSDTQLFFAAIDIGGDVVGGARVIGPLRSADDSHAVVEWAGNPGLSAVRKMINDRAPFGVVEVKSGWVNSDAQRSDAIAAALARALPLSMSLLGVQFVMGTAAAHALDRWRSSGGVIAARIPAAAYPDERYRTKMIWWDRRTLANHAEPKQLSRMLVESRKLLRDVEALSATTAATAGAEQ” stands “not soluble”; under “MGSDKIHHHHHHMLDVHKDIKKIFHEEQVLAEAAARYGFSKDQVRFLADAENYVYECMKDNQPYILKITHTIRRSSDYMMGEMEWLRHLAIGGISVAKPLPSLNGKDVEAVPDGNGGSFLLRVYEKAPGQKVDESDWNETLFYELGRYTGSMHSLTKSYKLSNPAFKRAAWAEEEQLKLRKYVPEDQIKVFQQADSLMNELRRLPKSQDNYGLVHADLHHGNFNWDHGKITAFDFDDIGYNWFVNDISILLYNVLWYPVVPYDDKAAFTEEFMTHFMKGYWEENELDPAWLMIIPDFLRLRHMLIYGLLHQMFDLNTIGEEEKEMLAGFRRDIENGTPITAFDFSALV”, “not soluble”; under “MDQLSAMRAFVRVVETGSFSATGKEMNTSQTTISKKVAALENQIGVKLLTRSSRDHSLTPAGSDYYQTCVNILSELDEVEAKVRSKATLPQGSIRITAPVAFGRFLLAPIVAEFFQHYPDIKIDLLLNDKHVNLISEGIDVAIRAKNLEDSSLVARHLLDNPMYLFASPDYLEQYGEPKHPNELSTHNCLIYSGLQDAHIWNFNHGEKEYSVPVKGNFQSDNGDVLLDVALTGVGIVSLPIWMAKAHLTSGHLRQIMTKYSGQQLPINAIYPQRRYTPLKVRCFIDFLKQKLSE”, “not soluble”.
Consider “SSNAKADQASSDAQTANAKADQASNDANAARSDAQAAKDDAARANQRADNAA”, for which the “soluble on expression in E. coli” value is “soluble”.
In the case of “GPGSMARVTLREDFDDCAADYRILSVSADHFKEITCKVAACKQTGEEMGKINETHHEATTLMTMKGGSQLLLCDDERTFRVRRVEYSNTLLLAEAKAAKMHDTNGIIESDNASDAGEGREHVVVCSSERVFEVKPSVAYNDISQHLLESPLTLKELDTLGTVERSDENVEYIKREELENGTSSSAQRFYTFPQLVALNRSSARELAVILSDMGAVVFNGYVRLLKPALMREALRASLNFFDAYDTMSWEGVMEQLCPSVYPHIVLRAVRAAYGNATASGETPRGMAAFLQVPKVLQALAASVLLADDAEQNTQFTEAELQDKKLSKSVNRRGSLFPELDFDIFYDSWTSSIPSSLFADGTLPSQSDRNALLKFLYGSVIVVRNAEGDSHVGARAVWAPSNVLSTDVSLRTRQLFEIRPGRWEAEELRAYVAPLLDPGVAFDHIIVRYAKEYRVPGRPVMYGNLS”, the “soluble on expression in E. coli” value is “not soluble”.
Under “MGKQLAKKITWAIENFSSLHSKKIYSDPFIVGGCKWRFLVYPKGNNVDYLFLYLEVADYESLSPEWRRHARYLLNVVNQNSVKRSKQNEEQKWFDVQSPRWGRLSMFPLNEINAKDSGFLVNGELKIVAEIEVLEVIGKLDVSEETSTIMESMDFNGFQLLPSQVDFVRHMFEKHPEIASEFRLKNPNLRAGYMSLLLSLIETLRQSPQELNKVDLAEGYVALRSITDAGFKVDWLEKKLVEISEKKNKEEAGETRMQEINEELESLKQKCLDLEAQLEKEKAEVFAAKSPLSFNDVF” stands “not soluble”; under “GPGSMSTSKEAADQSRKFGFKESREQYQQRKRQEKQLKWTERLSKEDLGKLRIELDSLKRARFLAPQQNERKCLVHRMIRDLEAAENKEPKEETPVVATMPSALDSDSDDDIFSGKGTLTNDEHKRLFIPRSVRKKPEEKKCEKTAQQLAGEAERELLAAVHDDDDLDSFLDSLR”, “soluble”.
Under “MVTPIAVVGPTASGKSALGIALAHKLDGEVVNVDSMQLYKGMDIGTAKLTVEEREGIAHHQLDVWDVTETASVARFQSDAVADVEDIMSRGKTPILVGGSMLYVQSLVDDWQFPPTDSAVRARFEARLADIGVEALHAELTQLDPEAAAVIESNDPRRTVRALEVIELTGQPFQASQPPKDAPPRWGTRIIGLKTTPEWLNPRIEQRTARMFEQGFVAEVEHLVQQGLIADSTAGRAIGYSQVLAAMAGEMTWEDAFERTVTGTRRYVRRQRSWFNRDHRVSWVDASGDPTAQALEILGLQLEHHHHHH” stands “soluble”.
For “MSLNVRIYCRASTEGQHADRALTSLREFSKSKGWQIAGEYIENASGAKLERVELMRLLSEAQSGDLLLVEAIDRLSRLEHSAWVELKDTLNRKGLIIVSMDLPTSWQMVEMAGNDLTSGILRAVNAMLIDILATMARQDYETRRKRQQQGIERAKSEGIYIGRAKNQEAREIVREMLEQGVKPELIMKAAGISRATYYRIKNELLIVKSEGHHHHHH” the value was “soluble”.
For “MGSDKIHHHHHHMLGTLKKMRVQLDDAQQVQYQLVVGDELLTLNPLIGKQLTLTHTGNIFCCNCGKKSKKSYSQGHCFVCMQKLASCDMCIMKPETCHYDQGTCREPEWAQSHCFVPHYVYLANTSGVKVGITRHTQLPTRWIDQGATQGLPIFKVSTRQLSGLVEVELAKLVNDKTHWQAMLKGHADDIDLNVKAAELIPQIEAKLHEIGMQKGDYSIERLDETIQPIHYPIDTFPKKITSHNFDKNGVVSGILQGIKGQYLMFDTGVINIRKFSSYEISVEHD”, the “soluble on expression in E. coli” value is given as “not soluble”.
Take “SNAERRLCAILAADMAGYSRLMERNETDVLNRQKLYRRELIDPAIAQAGGQIVKTTGDGMLARFDTAQAALRCALEIQQAMQQREEDTPRKERIQYRIGINIGDIVLEDGDIFGDAVNVAARLEAISEPGAICVSDIVHQITQDRVSEPFTDLGLQKVKNITRPIRVWQWVPDADRDQSHDPQPSHVQH”: the “soluble on expression in E. coli” value is “soluble”.
Turning to “SAQKPKVDPHVGRLGYLQALVTEFQETQSQDAKEQVLANLANFAYDPSNYEYLRQLQVLDLFLDSLSEENETLVEFAIGGLCNLCPDRANKEHILHAGGVPLIINCLSSPNEETVLSAITTLMHLSPPGRSFLPELTATPVVQCMLRFSLSASARLRNLAQIFLEDFCSPRQVAEARSRQAHSALGIPLPRSVAPRQR”, the “soluble on expression in E. coli” value is “soluble”.
For “SKVLLVFDFDNTIIDDNSDTWIIQCAPDKKLPIELQDSYQKGLWTEFMGRVFKYLRDEGVKEEELKRAVTSLPFTSGMIELLSFLRMNKDRFDCIIISDSNSIFIDWVLEAAAFHDVFDTVFTNPASFDSTGRLTVRNCHTHACTRCPKNLCKNTVLGEFIDKQLQKGVRYTRIVYIGDGGNDVCPVTFLKKNDVAMPREGYTLHRTLDKMSQNLEPMASSIVVWSSGMEIISHLQFLIQM”, the “soluble on expression in E. coli” value is recorded as “soluble”.
For “RDFSPVPWSQYFESMEDVEVENETGKDTFRVYKSGSEGPVLLLLHGGGHSALSWAVFTAAIISRVQCRIVALDLRSHGETKVKNPEDLSAETMAKDVGNVVEAMYGDLPPPIMLIGHSMGGAIAVHTASSNLVPSLLGLCMIDVVEGTAMDALNSMQNFLRGRPKTFKSLENAIEWSVKSGQIRNLESARVSMVGQVKQCEGITSPEGSKKDHPYTWRIELAKTEKYWDGWFRGLSNLFLSCPIPKLLLLAGVDRLDKDLTIGQMQGKFQMQVLPQCGHAVHEDAPDKVAEAVATFLIRHRFAEPIGGFQCVFPGC” the value was “soluble”; for “MSLIGETINKLKVIKESSKRDKSRCKMYECLCECGEVIIVRSSTLRQGKIKSCGCESNKIHSELMRERNTTHGLSSNPMYQRWLGMKQRCYDVNAINYKNYGGRGIEICEEWKNDFKKFYDYMGDPPNENYQIDRINNDGNYEPGNVKWSTRSENSTNIRKKSTHNIYKKSNNVYNIQIVRKNKVKYFSAKSLEEAIELRDNVINKYNETGEGHHHHHH”, “not soluble”.
